Several values for one entry are separate records, joined by “and”; a condition that tells them apart may be missing. Identical values can stand only once.
Molecular target: His-Tagged FcRn (UniProt P55899)
Test: SPR; His-tagged FcRn captured on an anti-His IgG1 antibody CM5 chip; antibody samples as analyte at 15, 5 and 1.66 nM in HBS-EP pH 6.0, 30 µL/min, 22 °C; steady-state model (the same data also fitted with a two-state model); mean of at least 5 measurements

Sequence of UniProt P55899 (P55899 24-297): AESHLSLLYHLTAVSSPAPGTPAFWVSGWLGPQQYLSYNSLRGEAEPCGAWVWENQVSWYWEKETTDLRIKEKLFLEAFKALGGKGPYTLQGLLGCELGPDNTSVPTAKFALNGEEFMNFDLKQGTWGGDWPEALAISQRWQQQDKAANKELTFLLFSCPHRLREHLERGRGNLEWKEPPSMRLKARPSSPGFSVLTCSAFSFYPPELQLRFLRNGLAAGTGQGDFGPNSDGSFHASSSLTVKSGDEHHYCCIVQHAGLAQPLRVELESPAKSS

**Q.** How did the Kd turn out when “Avastin (unfractionated innovator product) (antibody)” was run?
**A.** Its Kd is 25 nM and 22.7 nM.
